According to the supplement of paper PMC9112550, “Optimization of the antimicrobial peptide Bac7 by deep mutational scanning” (BMC Biology, 2022):

Each sequence was assayed on Escherichia coli TOP10 (assay: shrunken log2 fold change of peptide-encoding DNA abundance (4.5 h post-induction vs induction); higher = less antimicrobial activity (less host growth inhibition)). Conditions: time post-induction: 4.5 h; library: site-saturation at positions 5, 18, 19, 20.
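Further: peptides expressed intracellularly from a pBAD plasmid library in pooled LB shake-flask culture, induced with 0.3% L-arabinose, DNA abundance read by NGS, three biological replicates, DESeq2 with apeglm shrinkage.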

| Sequence | shrunken log2 fold change |
| --- | --- |
| RRIRVRPPRLPRPRPRPAMYPRP | 3.58 |
| RRIRVRPPRLPRPRPRPAPEPRP | 0.514 |
| RRIRVRPPRLPRPRPRPAPPPRP | 0.577 |
| RRIRVRPPRLPRPRPRPAQNPRP | 0.261 |
| RRIRVRPPRLPRPRPRPAQVPRP | 0.427 |
| RRIRVRPPRLPRPRPRPARLPRP | 0.266 |
| RRIRVRPPRLPRPRPRPASVPRP | 0.0346 |
| RRIRVRPPRLPRPRPRPATPPRP | 0.35 |
| RRIRVRPPRLPRPRPRPAVHPRP | -0.021 |
| RRIRVRPPRLPRPRPRPAVNPRP | 0.138 |
| RRIRVRPPRLPRPRPRPAWTPRP | -0.0585 |
| RRIRVRPPRLPRPRPRPAYCPRP | -0.112 |
| RRIRVRPPRLPRPRPRPCATPRP | 0.0911 |
| RRIRVRPPRLPRPRPRPCGTPRP | -0.317 |
| RRIRVRPPRLPRPRPRPCHVPRP | -0.859 |
| RRIRVRPPRLPRPRPRPCISPRP | 0.00333 |
| RRIRVRPPRLPRPRPRPCKSPRP | -0.214 |
| RRIRVRPPRLPRPRPRPCLAPRP | -0.0591 |
| RRIRVRPPRLPRPRPRPCMDPRP | -0.836 |
| RRIRVRPPRLPRPRPRPCMPPRP | 0.112 |
| RRIRVRPPRLPRPRPRPCMVPRP | -0.614 |
| RRIRVRPPRLPRPRPRPCPVPRP | -0.0687 |
| RRIRVRPPRLPRPRPRPCQAPRP | -0.0137 |
| RRIRVRPPRLPRPRPRPCRFPRP | -0.464 |
| RRIRVRPPRLPRPRPRPCSVPRP | -0.0384 |

| Sequence | shrunken log2 fold change |
| --- | --- |
| RRIRVRPPRLPRPRPRPCYAPRP | -0.162 |
| RRIRVRPPRLPRPRPRPDCLPRP | -0.318 |
| RRIRVRPPRLPRPRPRPDDEPRP | -0.125 |
| RRIRVRPPRLPRPRPRPDDGPRP | 0.0292 |
| RRIRVRPPRLPRPRPRPDEEPRP | 0.393 |
| RRIRVRPPRLPRPRPRPDEWPRP | 0.0467 |
| RRIRVRPPRLPRPRPRPDFEPRP | 0.0704 |
| RRIRVRPPRLPRPRPRPDFQPRP | -0.163 |
| RRIRVRPPRLPRPRPRPDGIPRP | -0.173 |
| RRIRVRPPRLPRPRPRPDGWPRP | 0.223 |
| RRIRVRPPRLPRPRPRPDHFPRP | -0.0417 |
| RRIRVRPPRLPRPRPRPDLCPRP | 0.0475 |
| RRIRVRPPRLPRPRPRPDLYPRP | -0.35 |
| RRIRVRPPRLPRPRPRPDNNPRP | -0.796 |
| RRIRVRPPRLPRPRPRPDNRPRP | -0.00604 |
| RRIRVRPPRLPRPRPRPDPGPRP | -0.321 |
| RRIRVRPPRLPRPRPRPDQHPRP | -0.0679 |
| RRIRVRPPRLPRPRPRPDQWPRP | -0.0427 |
| RRIRVRPPRLPRPRPRPDRCPRP | 0.0141 |
| RRIRVRPPRLPRPRPRPDRFPRP | 0.0559 |
| RRIRVRPPRLPRPRPRPDRQPRP | -0.215 |
| RRIRVRPPRLPRPRPRPDRSPRP | -0.039 |
| RRIRVRPPRLPRPRPRPDRWPRP | 0.478 |
| RRIRVRPPRLPRPRPRPDSFPRP | -0.0784 |
| RRIRVRPPRLPRPRPRPDSQPRP | -0.116 |

| Sequence | shrunken log2 fold change |
| --- | --- |
| RRIRVRPPRLPRPRPRPDTLPRP | -0.712 |
| RRIRVRPPRLPRPRPRPDVNPRP | -0.172 |
| RRIRVRPPRLPRPRPRPDWHPRP | -0.0256 |
| RRIRVRPPRLPRPRPRPDYAPRP | -0.0204 |
| RRIRVRPPRLPRPRPRPDYHPRP | -0.558 |
| RRIRVRPPRLPRPRPRPDYLPRP | -0.222 |
| RRIRVRPPRLPRPRPRPEADPRP | 0.0974 |
| RRIRVRPPRLPRPRPRPEALPRP | -0.00459 |
| RRIRVRPPRLPRPRPRPEAQPRP | 0.112 |
| RRIRVRPPRLPRPRPRPEASPRP | 0.0108 |
| RRIRVRPPRLPRPRPRPEATPRP | 0.92 |
| RRIRVRPPRLPRPRPRPECHPRP | 0.241 |
| RRIRVRPPRLPRPRPRPEDRPRP | 0.0837 |
| RRIRVRPPRLPRPRPRPEEHPRP | -0.0681 |
| RRIRVRPPRLPRPRPRPEFIPRP | -0.176 |
| RRIRVRPPRLPRPRPRPEGIPRP | -0.0615 |
| RRIRVRPPRLPRPRPRPEHIPRP | -0.0362 |
| RRIRVRPPRLPRPRPRPEHLPRP | -0.171 |
| RRIRVRPPRLPRPRPRPEIQPRP | 0.349 |
| RRIRVRPPRLPRPRPRPEKIPRP | -0.191 |
| RRIRVRPPRLPRPRPRPELCPRP | 0.0749 |
| RRIRVRPPRLPRPRPRPELFPRP | 0.181 |
| RRIRVRPPRLPRPRPRPEMAPRP | 0.311 |
| RRIRVRPPRLPRPRPRPENNPRP | 0.00554 |
| RRIRVRPPRLPRPRPRPEPGPRP | 0.547 |
